Source: publication PMC8510540 (2021)

Key:
[1] = target: HIV-1_(YU-2) gp140 trimer (HIV-1 YU-2); assay: BLI; kinetic
[2] = target: HIV-1_(YU-2) gp140 trimer (HIV-1 YU-2); assay: BLI; equilibrium

Binder	Kd [1] [nM]	Kd [2] [nM]
IgG1 b12 EFTAE Fc variant (antibody, V domains shown) VH: QVQLVQSGAEVKKPGASVKVSCQASGYRFSNFVIHWVRQAPGQRFEWMGWINPYNGNKEFSAKFQDRVTFTADTSANTAYMELRSLRSADTAVYYCARVGPYSWDDSPQDNYYMDVWGKGTTVIVSS VL: EIVLTQSPGTLSLSPGERATFSCRSSHSIRSRRVAWYQHKPGQAPRLVIHGVSNRASGISDRFSGSGSGTDFTLTITRVEPEDFALYYCQVYGASSYTFGQGTKLERK	2.78	1.93
IgG1 b12 EG Fc variant (antibody, V domains shown) VH: QVQLVQSGAEVKKPGASVKVSCQASGYRFSNFVIHWVRQAPGQRFEWMGWINPYNGNKEFSAKFQDRVTFTADTSANTAYMELRSLRSADTAVYYCARVGPYSWDDSPQDNYYMDVWGKGTTVIVSS VL: EIVLTQSPGTLSLSPGERATFSCRSSHSIRSRRVAWYQHKPGQAPRLVIHGVSNRASGISDRFSGSGSGTDFTLTITRVEPEDFALYYCQVYGASSYTFGQGTKLERK	2.26	0.9
IgG1 b12 KA Fc variant (antibody, V domains shown) VH: QVQLVQSGAEVKKPGASVKVSCQASGYRFSNFVIHWVRQAPGQRFEWMGWINPYNGNKEFSAKFQDRVTFTADTSANTAYMELRSLRSADTAVYYCARVGPYSWDDSPQDNYYMDVWGKGTTVIVSS VL: EIVLTQSPGTLSLSPGERATFSCRSSHSIRSRRVAWYQHKPGQAPRLVIHGVSNRASGISDRFSGSGSGTDFTLTITRVEPEDFALYYCQVYGASSYTFGQGTKLERK	2.56	2.95
IgG1 b12 LALA Fc variant (antibody, V domains shown) VH: QVQLVQSGAEVKKPGASVKVSCQASGYRFSNFVIHWVRQAPGQRFEWMGWINPYNGNKEFSAKFQDRVTFTADTSANTAYMELRSLRSADTAVYYCARVGPYSWDDSPQDNYYMDVWGKGTTVIVSS VL: EIVLTQSPGTLSLSPGERATFSCRSSHSIRSRRVAWYQHKPGQAPRLVIHGVSNRASGISDRFSGSGSGTDFTLTITRVEPEDFALYYCQVYGASSYTFGQGTKLERK	2.06	2.04
IgG1 b12 (unmodified Fc) (antibody, V domains shown) VH: QVQLVQSGAEVKKPGASVKVSCQASGYRFSNFVIHWVRQAPGQRFEWMGWINPYNGNKEFSAKFQDRVTFTADTSANTAYMELRSLRSADTAVYYCARVGPYSWDDSPQDNYYMDVWGKGTTVIVSS VL: EIVLTQSPGTLSLSPGERATFSCRSSHSIRSRRVAWYQHKPGQAPRLVIHGVSNRASGISDRFSGSGSGTDFTLTITRVEPEDFALYYCQVYGASSYTFGQGTKLERK	1.72	2.18
